Data taken from publication PMC3728988, “Kinetic mechanism of the dimeric ATP sulfurylase from plants” (Bioscience Reports, 2013).

T1: soybean ATP sulfurylase isoform 1 (GmATPS1) (Glycine max, UniProt Q8SAG1)
T1 construct: homodimer
T1 sequence (Q8SAG1 49-462): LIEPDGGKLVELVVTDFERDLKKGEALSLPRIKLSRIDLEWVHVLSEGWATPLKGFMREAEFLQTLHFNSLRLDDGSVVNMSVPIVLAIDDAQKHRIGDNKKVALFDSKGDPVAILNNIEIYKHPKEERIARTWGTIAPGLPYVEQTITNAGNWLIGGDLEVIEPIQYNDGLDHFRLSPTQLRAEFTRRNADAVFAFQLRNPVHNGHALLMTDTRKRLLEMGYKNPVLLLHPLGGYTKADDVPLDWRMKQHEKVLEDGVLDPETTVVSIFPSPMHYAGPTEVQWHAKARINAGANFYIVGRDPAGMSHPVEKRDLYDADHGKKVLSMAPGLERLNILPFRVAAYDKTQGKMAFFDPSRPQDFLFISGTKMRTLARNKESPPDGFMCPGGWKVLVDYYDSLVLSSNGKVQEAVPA

B1: soybean ATP sulfurylase isoform 1 (GmATPS1) (Glycine max) (protein)
chain: T1 sequence (Q8SAG1 49-462)

How the values were obtained:
[1] = target: T1, soybean ATP sulfurylase isoform 1 (GmATPS1); experiment: dead-end inhibition kinetics, coupled spectrophotometric assay of APS synthesis; assay type: biochemical
purified protein [2] = substrate: O=S(=O)(O)O; experiment: purified protein; settings: ATP, Mg2+ binds after ATP; chlorate competes with it
purified protein [3] = substrate: Nc1ncnc2c1ncn2[C@@H]1O[C@H](COP(=O)(O)OP(=O)(O)OP(=O)(O)O)[C@@H](O)[C@H]1O; experiment: purified protein; settings: Mg2+ binds first in the forward reaction

| Molecule | Ki [1] [µM] | Km (purified protein [2]) | Km (purified protein [3]) [µM] |
| --- | --- | --- | --- |
| [O-][Cl+2]([O-])O [chlorate] | 103 ± 19 |  |  |
| B1 |  | 1,030±280 μM | 221 ± 41 |
